The results in this text go back to the supplement of paper PMC12764529.

Series [1] in a line: folding stability dG unfold from trypsin proteolysis; higher = more stable. A digest of the protocol: (§1)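 Designed mini-proteins with no cysteine and under 80 residues were kept only if AlphaFold2 dimer inter-PAE was above 15. In a PA-tagged cDNA display construct, they were digested with trypsin and chymotrypsin and then sequenced. K50 was inferred by Bayesian fitting of counts, and unfolding free energy was derived per protease or combined against a sequence-predicted unfolded-state K50 and a shared folded-state K50.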

A short description of series [2]: folding stability dG unfold (combined trypsin and chymotrypsin); higher = more stable. The procedure, abridged:
as §1

A short description of series [3]: folding stability dG unfold from chymotrypsin proteolysis; higher = more stable. A digest of the protocol: as §1

± gives the half width of the 95% confidence interval. A value given as a limit tells only on which side of the number the result lay.

Take “SAGGKNITIDDITFQPQRDNGKPRYYMEVKVELPNGNPIPITMPMDRMQNNGMSPKTFAKWIAKWLLSAGGS [r16_625_TrROS]”: the “folding stability dG unfold” value in series [1] came to 1.04 ± 0.13 kcal/mol; in series [2] it was 1.3 ± 0.12 kcal/mol; in series [3], 1.5 ± 0.22 kcal/mol.
Turning to “SAGGKPKEITLVVKVGETVEFPEGAEVTYDKETGTVTIKLPDGRTIRVEVTYNPDTDYLVVKITVEPSAGGS [r16_122_TrROS_Hall]”, the “folding stability dG unfold” value in series [1] amounted to 2.07 ± 0.074 kcal/mol; in series [2], 2.34 ± 0.13 kcal/mol; in series [3] it was 2.41 ± 0.083 kcal/mol.
On to “SAGGKPKIRIKIEIYTPEKKETIELEFDSVEEALEALASLPGVKVEKLPDGTIYIKIPNLIIKIEIEPSAGG [r13_143_TrROS_Hall]”, for which the “folding stability dG unfold” value in series [1] was 3.19 ± 0.2 kcal/mol; in series [2], 3.42 ± 0.3 kcal/mol; in series [3] it was 3.57 ± 0.1 kcal/mol.
As for “SAGGKPKKTILIPLIVPPGKPESAIKALAEFLEAKGYELERIEPVPVGDRLRLVAIFRKPDGTEIKVGSAGG [r13_421_TrMRF]”, the “folding stability dG unfold” value in series [1] came out at 1.66 ± 0.037 kcal/mol; in series [2], 1.78 ± 0.069 kcal/mol; in series [3], 1.9 ± 0.11 kcal/mol.
Take “SAGGKPKPGQEVEMKMIMLMVTKPGEITIMRMKMEMRVNPDGNVQMDMKMEMVRVPLSKDQAKELLNASAGG [r13_544_TrROS]”: the “folding stability dG unfold” value in series [1] is 2.68 ± 0.07 kcal/mol; in series [2], 3.69 ± 0.36 kcal/mol; in series [3], 4.25 ± 0.24 kcal/mol.
For “SAGGKPLLIKVKVRLKNGKELTITVREGESLEEILARARELLGKPIEVEKIEVIPLPPKKEVKKKEKSAGGS [r8_285_TrROS_Hall]”, the figures for the “folding stability dG unfold” value in series [1], in series [2] and in series [3] were 1.48 ± 0.019 kcal/mol, 2.46 ± 0.093 kcal/mol and 2.86 ± 0.072 kcal/mol, respectively.
With “SAGGKPNEKVKIKIKNKDGSEETIEIKVDEEVKIKIKFNGEEKEITIKKGETLTITLENAEIEVEKVSAGGS [r16_456_TrROS_Hall]”, the figures for the “folding stability dG unfold” value in series [1], in series [2] and in series [3] were 1.95 ± 0.16 kcal/mol, 1.94 ± 0.31 kcal/mol and 1.83 ± 0.22 kcal/mol, respectively.
For “SAGGKPVRILVIAGKGIRPLEIPVDEDKTVEAEFKFGDHTIRIRVSPKEKKIEVEAPSNFKIIILEPSAGGS [r16_761_TrMRF]”, the “folding stability dG unfold” value in series [1] is 2.96 ± 0.092 kcal/mol; in series [2], 2.98 ± 0.12 kcal/mol; in series [3] it was 3.14 ± 0.042 kcal/mol.
For the sequence “SAGGKSIHIADATLEDLVDLIANLPEPVVIHVERPVTFPVLLLENGVVAAVRTETAPATLTLTIPPELSAGG [r13_632_TrMRF]”, the entries for the “folding stability dG unfold” value in series [1], in series [2] and in series [3] were 0.408 ± 0.021 kcal/mol, 0.389 ± 0.05 kcal/mol and 0.258 ± 0.087 kcal/mol, respectively.
Regarding “SAGGKSVHIPGLSFEDLRDLIRNLPEPVTIHIEMPMRYPMYKYENGKPKEWQRQEMPMTSTFKIPPDDSAGG [r13_632_TrROS]”, the “folding stability dG unfold” value in series [1] is -1.01 ± 0.47 kcal/mol; in series [2], -0.565 ± 0.23 kcal/mol; in series [3], -0.522 ± 0.36 kcal/mol.
For “SAGGKTIMIMFTPDNAEEIAETIVDEFGYDVKIEKVQPMPMKDPDGKQKAPYYMIEIEIKVPDPGQPLSAGG [r13_943_TrROS]”, the “folding stability dG unfold” value was 0.945 ± 0.033 kcal/mol in series [1], 0.505 ± 0.094 kcal/mol in series [2] and -0.282 ± 0.22 kcal/mol in series [3].
The matching figures for “SAGGKTITIKVKLENGEEKTIEVKVDEVKIEKKNGKLVITFKDGKKITIPLDKIEDMSEDEIKKLLEKSAGG [r13_925_TrROS_Hall]”: 2.72 ± 0.15 kcal/mol, 2.97 ± 0.2 kcal/mol and 3.03 ± 0.18 kcal/mol.
Regarding “SAGGKTITLPNGITITVNEDGTVTVTVTVDGKTLTVTVKVDSLEEALAAILEELRRLLKPPEVTVVKPSAGG [r13_896_TrROS_Hall]”, the “folding stability dG unfold” value in series [1] was 2.52 ± 0.097 kcal/mol; in series [2] it was 3.07 ± 0.17 kcal/mol; in series [3], 3.43 ± 0.13 kcal/mol.
The matching figures for “SAGGKTIVIKVKTKEQAKALAEELAKKLKDAGYTVTVTYDEETGVVTVTVTVKVNGKTKKITLVLELPSAGG [r13_641_TrROS_Hall]”: 3.51 ± 0.074 kcal/mol, 3.26 ± 0.038 kcal/mol and 3.05 ± 0.043 kcal/mol.
“SAGGKTIWIFFPPDNPEEFLEELAQLPNVTDVEVWRHNDYYMIEIRLEGLPIEIHYNPEGYYMIEIELSAGG [r13_907_TrROS]”: the “folding stability dG unfold” value in series [1] was found to be 2.39 ± 0.14 kcal/mol; in series [2], 3.48 ± 0.16 kcal/mol; in series [3] it was 3.71 ± 0.074 kcal/mol.
For the sequence “SAGGKTKEIELEILFEPVKVKKKKKNKNGKEEEVEEKEFKPVLVRITLKIENGKITEIKIEVEKLDDLSAGG [r13_935_TrROS_Hall]”, the entries for the “folding stability dG unfold” value in series [1], in series [2] and in series [3] were 2.05 ± 0.077 kcal/mol, 2.93 ± 0.26 kcal/mol and 3.37 ± 0.11 kcal/mol, respectively.
Take “SAGGKTLTIEVNGKKYKITVEKNENGELTLTIYEYDKKTKKWKKIKTIKLKNMSLEEVLKLLKKLPPSAGGS [r16_378_TrROS_Hall]”: the entries for the “folding stability dG unfold” value in series [1], in series [2] and in series [3] were 4.09 ± 0.2 kcal/mol, 4.58 ± 0.3 kcal/mol and 4.91 ± 0.19 kcal/mol, respectively.
Turning to “SAGGKTLYVVRITRRVRVDGKLYEVTLTLVAESEEEAEEALRKLAEELEALFPDEIRIEVEKVELPPSAGGS [r16_475_TrROS_Hall]”, the entries for the “folding stability dG unfold” value in series [1], in series [2] and in series [3] were 3.93 ± 0.13 kcal/mol, 5.5 ± 0.25 kcal/mol and 5.7 ± 0.24 kcal/mol, respectively.
“SAGGKTVEVEFEAPESLSPEEIAAAILAAAPPGYFVKVEEVEVRDRPDGEKVILYKATFYDPDTGDFDSAGG [r13_12_TrMRF]”: the “folding stability dG unfold” value in series [1] worked out at 2.72 ± 0.081 kcal/mol; in series [2], 2.73 ± 0.048 kcal/mol; in series [3] it was 2.804 ± 0.021 kcal/mol.
The matching figures for “SAGGKTVVIELDGARIEFNEDDGTITVWMPREELEALKAALPPGAEIVEVRERPDGWVQVTIRITPPSAGGS [r8_415_TrROS_Hall]”: 3.1 ± 0.14 kcal/mol, 3.89 ± 0.1 kcal/mol and 4.21 ± 0.15 kcal/mol.
Turning to “SAGGKVEVELEDGKLRVKVFDKNGKLVEEVEVELKPVTIVIPGLSEEELQELKEKFPGAKITILEGQKSAGG [r13_235_TrROS_Hall]”, the “folding stability dG unfold” value in series [1] came to 1.73 ± 0.063 kcal/mol; in series [2], 2.39 ± 0.11 kcal/mol; in series [3], 2.87 ± 0.08 kcal/mol.
Turning to “SAGGKVKALIIPAPDEPGKPVYLKIIHPDGEIVYPLPNDITEEEAKAAAIELGEENGLDLDEIEIAESAGGS [r16_753_TrMRF]”, the “folding stability dG unfold” value is 0.537 ± 0.032 kcal/mol in series [1], 0.746 ± 0.099 kcal/mol in series [2] and 0.893 ± 0.065 kcal/mol in series [3].
The matching figures for “SAGGKVKIIVFNKKTGEKIEIDLSKLKPGDIIKLPNGYYKIIDKKTKKIKVIKAKSIEELKKAIKKLSSAGG [r13_962_TrROS_Hall]”: 2.07 ± 0.15 kcal/mol, 2.01 ± 0.33 kcal/mol and 2.21 ± 0.17 kcal/mol.
As to “SAGGKVKVKLSPEMIEALKKAGIKEGQKEVTIEVKLKDGSVYRVTITYDKKTNKITIKVEKVEKLPPSAGGS [r16_497_TrROS_Hall]”, the “folding stability dG unfold” value is 2.58 ± 0.16 kcal/mol in series [1], 3.88 ± 0.32 kcal/mol in series [2] and 4.16 ± 0.1 kcal/mol in series [3].
Taken in the same sequence, the figures for “SAGGKVKVTVTPDGTVTIEFEAESVEEAIKAAKAFLEEAGFEVESIPVEVPPDGTVKVTAKIKPKNASAGGS [r8_253_TrMRF]” were 1.33 ± 0.06 kcal/mol, 1.67 ± 0.14 kcal/mol and 1.79 ± 0.11 kcal/mol.
In the case of “SAGGKVTLIEVEFEGGNPTISLTVTNADGSVEAVFVSPSPTDVLYATATLTVGGHPVVVVARASKDESAGGS [r16_672_TrMRF]”, the “folding stability dG unfold” value amounted to 1.3 ± 0.094 kcal/mol in series [1], 1.8 ± 0.12 kcal/mol in series [2] and 2.11 ± 0.056 kcal/mol in series [3].
As to “SAGGKVTLRAPVVVPKDKIEDFIDALREALEALGLKEFKDIEIKEIIEGDDYYIIDFEVTAEADLPELASAG [r5_575_TrMRF]”, the “folding stability dG unfold” value in series [1] was determined as 2.65 ± 0.12 kcal/mol; in series [2], 2.32 ± 0.13 kcal/mol; in series [3], 2.21 ± 0.036 kcal/mol.
On to “SAGGKVTVENDTLTIPFPDGFTVEITLPPNDKTAVITLHTPPNNPLALAAAKAIADSLPDYKVEVRDESAGG [r13_34_TrMRF]”, for which the “folding stability dG unfold” value in series [1] turned out to be 0.662 ± 0.035 kcal/mol; in series [2] it was 0.704 ± 0.07 kcal/mol; in series [3] it was 0.649 ± 0.06 kcal/mol.
On to “SAGGKVVTVEVELENGVRVTVEFVEEDGYLALKVTVEVRLPAPPVTTADGREKEVTRRLELVILLPKESAGG [r13_780_TrROS_Hall]”, for which the results for the “folding stability dG unfold” value in series [1], in series [2] and in series [3] were 2.72 ± 0.14 kcal/mol, 3.05 ± 0.13 kcal/mol and 3.17 ± 0.15 kcal/mol, respectively.
The matching figures for “SAGGKVYEFEIEVELLDPETGKPKKIKLKVPVFVDPKTGKVTKKVEAEPEPNVPKEEAEKIAKEIIEAESAG [r14_152_TrMRF]”: -0.04 ± 0.38 kcal/mol, 1.36 ± 0.31 kcal/mol and 1.71 ± 0.073 kcal/mol.
“SAGGKYGYKIEIEIAIFRIPPGAEVEPERIGNIEIYRIRFPDGNWLIMIRIKVKPMPPPPPEKKDNDDSAGG [r13_804_TrROS]”: the entries for the “folding stability dG unfold” value in series [1], in series [2] and in series [3] were 3.61 ± 0.22 kcal/mol, 4.22 ± 0.34 kcal/mol and 4.7 ± 0.23 kcal/mol, respectively.
As for “SAGGKYKIEIEITEIKEKEDGTKEITIKIKIYDEETGELIYTITVKMRIDKKTNKIIIEEVKIEKLPPSAGG [r13_596_TrROS_Hall]”, the “folding stability dG unfold” value was 4.22 ± 0.29 kcal/mol in series [1], greater than 6 kcal/mol in series [2] and 6 ± 0.36 kcal/mol in series [3].
On to “SAGGKYKIEIVDVEVKEDGTVTIKLKLYNENGELIAEIEIELKGVKEVTLELEIGGKKIKITLKVEKPSAGG [r13_427_TrROS_Hall]”, for which the entries for the “folding stability dG unfold” value in series [1], in series [2] and in series [3] were 4.13 ± 0.36 kcal/mol, 5.36 ± 0.41 kcal/mol and 5.3 ± 0.17 kcal/mol, respectively.
On to “SAGGLAEYIARYLQENDPRARVEAEEGDVLDGVRVIRVRVERVDDAFGGDIPSSADFILVIPAGAPPTSAGG [r19_8_TrMRF]”, for which the “folding stability dG unfold” value in series [1] was 1.36 ± 0.025 kcal/mol; in series [2], 1.38 ± 0.089 kcal/mol; in series [3], 1.38 ± 0.1 kcal/mol.
Consider “SAGGLDAVLAELAKKPPGVTVELPVELPDGSRVVLTATWPAETSSPVITVKYYDPNRPEAVEEETFTVTSAG [r5_35_JUSTAS]”, for which the “folding stability dG unfold” value in series [1] came out at 1.34 ± 0.08 kcal/mol; in series [2] it was 1.46 ± 0.12 kcal/mol; in series [3] it was 1.47 ± 0.049 kcal/mol.
